From the DeepSol protein solubility set come the findings set out here.

The data set is described as follows: soluble on expression in E. coli; label from the status in PepcDB or PDB records.
As for “GPGSMQEERERAERSKLLREEHDFWVEFRDRERAERLKYMTEQEIVELLQREADEATRESNRADQLHQRAMEDALRRRHITADVQRGGEDTVLARRKGEVQVDGIRLAAERETSVMVGAMTVAERTRRAGVERQQREEDLTAKCQQLMTELEEARASATRAQRYQKRAEDDLTREQENTRKEQSDAAACKETNDKLLKELAEVRQQLTASEAERKKAEAAKVQAAREVAQKEKELTCLRKRDDELAAQQASQKAAAEDEKQRAFTFQEELKTYRDALEKEQAARNRAETELAALREQAKTLEAKVAAASAPDPKQVADNMRKLKAVADDARKAQADLVKERQARESAEAAAVEARDALAKEQAVREKVEKEAQRALAASSVSVLHVQKAESDRKKLAEAEKKLEEMRRARNRDEVEKAALKREMEKVKRDLEGEASARAQFEQLASQAVSADDRVPQREVDQLRKALQISQEQCNAARRDTVACQQNAAREIALLKAWCERLQQQHRMQQQVLQSDEEFTPRTATPTPHCRTPRSVRKRIPQDLVADQRQAEEKAASDQRIRELEAHVTRLQVDLGRSKDQERRAIAGAEQARKALEASTATSMPDSGKASPGPSERGIAKEQEAKERAMVQRLNALERECAEAQKKYDDLVVAHRQSEAARCEAELQVAAQRAQIEQRQREEPQSYTSALGNYETSRLEPISATAGESTSALEERIKELERHLAEERAARQAAERRAEESQKLCAAPGTDAMSAAKRAEANVSSSGAGAKGKPQKVKSACC”, the “soluble on expression in E. coli” value was “not soluble”.

As for “MGSDKIHHHHHHMKTLQYSFAQIEAFATIAETGSLSQAAIRLAKDRTTLRDLLDYLEDALGYRLFSREGRSLTLTAEGEQLFRQAHLLLRQAQAFESFAQTLPQTAGQALRLVYDPFVPREFLCALADNLARRQIRLSCWSASRREAEQALSDGVAEMAICQANNRTLGSEMEWRALGTVDLRFYAADSLFHDAPRPLTLLNLSLTPQLVMHRRSDDQIARRLQISGHTLYMNEITLLRHALEQGRGWGFLPDHLRPGEWQGVSEIATEVGSQGLNVTMVMLWLPGMNKHRMLSDIVHEAPELWLRR”, the “soluble on expression in E. coli” value is listed as “not soluble”.

Regarding “MARDALTDALTVGELRRRVHALVLGKRQRVYSGAMFLVEVVHHPELSAMLGLEDNKLLLAMIAQRLQMQSDYFQVARHSSDSFMVWAPDLDPRSARDVAPEVLDALSQPYELRGQPLIVGFRLSGALYAQHGACFDELERSLHIAMLHLDESAGAAWNMFEPSMLEHQRHYQGLEHHHHHH”, the “soluble on expression in E. coli” value is reported as “not soluble”.

In the case of “MSLRINGQAELSGANTFLQAQVQLTGEVEIKLQKPLQLTAAKAATEIHLRIPDFVVWKDLFESTPFAVPAPLHVLTGDIELDVHAQLTDLDSPLQADATAQSRLSSKNQKLFVKATADLETLGKILKPRGLKVHADVVLQDVHLQAPPLRLAVPPQVLPDKRFVMRKDLDIIEEEKPAPTSRIPFELLWSVNIKTEKPVLISSNLLQSPVPVALDMQVQSDRKPQGKVMVQSFPFEFFRKKATVNNVDLIFHPDTVAPELSGKISYSNPEVNIRILLLGNTQRPIVNLESDPQLNQQQILSVLLFDKSLDELNEDEVNSTSNMSRAVSDGALGLFSLMFLSSTPIQSISYDPNSQSYTARMRLDDNTTFSMQSNMTEQRQFTLRRRLGGNWSVRTELSQEDSRADVVQTLLEWMRRFEGHHHHHH”, the “soluble on expression in E. coli” value is “not soluble”.

“MSIIFNQRIEIIRAGEKRSVYSSDVMEDWDNPVVLPVEVPVSIQPVSSTESDATANRSYVTSRFRLFSPPGIDIPQLKAKDRVRIGLLVLDVVGDPARWPHPLKPATVHHVEADLEVHRG”: the “soluble on expression in E. coli” value is “not soluble”.

Turning to “MASYKGLIVDVNGRSHENNLAHRTREIDRERLIVRRGQPFSITLQCSDSLPPKHHLELVLHLGKRDEVVIKVQKEHGARDKWWFNQQGAQDEILLTLHSPANAVIGHYRLAVLVMSPDGHIVERADKISFHMLFNPWCRDDMVYLPDESKLQEYVMNEDGVIYMGTWDYIRSIPWNYGQFEDYVMDICFEVLDNSPAALKNSEMDIEHRSDPVYVGRTITAMVNSNGDRGVLTGRWEEPYTDGVAPYRWTGSVPILQQWSKAGVRPVKYGQCWVFAAVACTVLRCLGIPTRPITNFASAHDVDGNLSVDFLLNERLESLDSRQRSDSSWNFHCWVESWMSREDLPEGNDGWQVLDPTPQELSDGEFCCGPCPVAAIKEGNLGVKYDAPFVFAEVNADTIYWIVQKDGQRRKITEDHASVGKNISTKSVYGNHREDVTLHYKYPEGSQKEREVYKKAGRRVTEPSNEIAEQGRLQLSIKHAQPVFGTDFDVIVEVKNEGGRDAHAQLTMLAMAVTYNSLRRGECQRKTISVTVPAHKAHKEVMRLHYDDYVRCVSEHHLIRVKALLDAPGENGPIMTVANIPLSTPELLVQVPGKAVVWEPLTAYVSFTNPLPVPLKGGVFTLEGAGLLSATQIHVNGAVAPSGKVSVKLSFSPMRTGVRKLLVDFDSDRLKDVKGVTTVVVHKKYRSLITGLHTD”, the “soluble on expression in E. coli” value is given as “soluble”.

With “MGSDKIHHHHHHNQFSVKCWLRYIEFKQGAPKPRLNQLYERALKLLPCSYKLWYRYLKARRAQVKHRCVTDPAYEDVNNCHERAFVFMHKMPRLWLDYCQFLMDQGRVTHTRRTFDRALRALPITQHSRIWPLYLRFLRSHPLPETAVRGYRRFLKLSPESAEEYIEYLKSSDRLDEAAQRLATVVNDERFVSKAGKSNYQLWHELCDLISQNPDKVQSLNVDAIIRGGLTRFTDQLGKLWCSLADYYIRSGHFEKARDVYEEAIRTVMTVRDFTQVFDSYAQFEESMIAAKMETASELGREEEDDVDLELRLARFEQLISRRPLLLNSVLLRQNPHHVHEWHKRVALHQGRPREIINTYTEAVQTVDPFKATGKPHTLWVAFAKFYEDNGQLDDARVILEKATKVNFKQVDDLASVWCQCGELELRHENYDEALRLLRKATALPARRAEYFDGSEPVQNRVYKSLKVWSMLADLEESLGTFQSTKAVYDRILDLRIATPQIVINYAMFLEEHKYFEESFKAYERGISLFKWPNVSDIWSTYLTKFIARYGGRKLERARDLFEQALDGCPPKYAKTLYLLYAQLEEEWGLARHAMAVYERATRAVEPAQQYDMFNIYIKRAAEIYGVTHTRGIYQKAIEVLSDEHAREMCLRFADMECKLGEIDRARAIYSFCSQICDPRTTGAFWQTWKDFEVRHGNEDTIKEMLRIRRSVQATYNTQVNFMASQMLKVSGSATGTVSDLAPGQSGMDDMKLLEQRAEQLAAEAERDQPLRAQSKILFVRSDASREELAELAQQVNPEEIQLGEDEDEDEMDLEPNEVRLEQQSVPAAVFGSLKED”, the “soluble on expression in E. coli” value was “not soluble”.

Consider “GPGSMLHDAPWHLSLAHRCLAPHGVVAIMGYATRVCVVAPEAARRDADDFMEDLQRTAREAAKMKDSKELRVALGRAIDISSSLDAGHADMYFPFRSTKRRWFTSEYAATPAQLAASYRALPEYQLLSREMPRYRQALISGRQKVQVGEETEKDEPVNVFRRQHGAEPLEVLQGCLQAQVMSLHGRNTPAMPPLRVQVRHFIITCSSRSVNAASEPFQLRSLRREIPQLK”, for which the “soluble on expression in E. coli” value was “not soluble”.

As to “DNKELQKLTEDISETYFKKPFRHQALFNDRLKTTGGRYLLTSHNIELNRKYLIEHGREELIGIIKHELCHYHLHLEGKGYKHRDRDFRMLLQQVNAPRFCTPLKKKAENKKTYMYICTTCGQQYIKKRAMNPDRYRCGKCRGKIKRI”, the “soluble on expression in E. coli” value is given as “not soluble”.

Consider “HYTSVPNIMKVIKPLFLDKLNQSFLDAYDDYTKLENLLTRIGKIKFFDPACGSGNFLIITYKELRRMEINIIKRLQELLGEYLYVPSVTLSQFYGIEIEDFAHDVAKLSLWIAEHQMNEELKNEVHNAVRPTLPLHTAGDIRCANAIRVEWTEVCPAQGSEEVYVFGNPPYLGSKKQNKEHKSDMLSIFGKVKNGKMLDYISAWFYFGAKYASTTNAKVAFVSTNSVTQGEQVSILWNELFKFGI”, for which the “soluble on expression in E. coli” value is “not soluble”.

Regarding “MNPQRGILFACLLVVVTNRGATAQHARPPVGVTGDVTGARIDPPSDKCENPSVNIATTEAPKIVTTAEPAANSTKPAQPNSATGPVVLLTIVAVTMN”, the “soluble on expression in E. coli” value is “not soluble”.

Regarding “MSLADIGSDHAYLPCYAVLNHKASGAIAGEITDGPFLSAKRQVEKSGLNSHISVRQGDGLEVIKKGEADAITIAGMGGALIAHILEAGKDKLTGKERLILQPNIHAVHIREWLYKERYALIDEVILEEDGKCYEVLVAEAGDRDAAYDGISLSAGMLVGPFLAKEKNAVFLKKWTQELQHTQSIYEQISQAADTEQNKQKLKELADRMELLKEVIDHGEGHHHHHH”, the “soluble on expression in E. coli” value was “soluble”.

In the case of “MSLARVSGDAPAVSWETLDLHTAQPFGIARWTHSVYPRTFVTLTLDGRRGRGEAAPNAFYGETRGTVEAVLPLLAPALSDPWDWDGLHAALGARMPHDHPSVKCALEMAAVEWCAQAAGVPVWQLLGLSPTVLPESSYTVSLAPLPDMRRQAREAVGRGHRVLKVKLGTDQDEAILEALREEVPEVALRVDANAAWTRAQAKRMLGVLDAARVEFVEQPLAAGDLEGHAMLRGVSPVPIVADESLHHVGDVLALARAFDGVNLKLAKLGGPLQALRALRLARAHGMQVMMGCMIESSLGIAAAAHLAGLCDWADLDGALLLADDPYTGLDWTAGQLARPGGTGWGVTRRSEGHHHHHH”, the “soluble on expression in E. coli” value was “soluble”.

Take “MGSDKIHHHHHHMTRRAWTLLDGGMGRELKRIGAPFRQPEWSALALFEAPEYVTQVHRAFIAAGARVITTNSYAVVPFHIGEERFARSGRALAELSGRLARGAADEAGASVQVAGSLPPALGSYRPDLFDPARSQAIHRELICGLTPHVDFWLAETQSSLAEARAVHAALDGDGKPLWLSFTLLDPDTEHAVPLLRSGESVQQAVLLALELGASALLFNCSQPESMGAALRSARQVLKQEARELALGVYANAFPPVREDAQANDTLLDIRADLGPEAYLQWAQQWVEEGADIVGGCCGIGPEHIARLDEHLQACKQGME”: the “soluble on expression in E. coli” value was “not soluble”.

Regarding “MARARKGALVQCDPSIKALILQIDAKMSDIVLEELDDTHLLVNPSKVEFVKHELNRLLSKNIYNPMDEEENQ”, the “soluble on expression in E. coli” value is on record as “soluble”.

With “MHIDNEDALFDWLSDELSPITDADPNALAKYVLALVKKPDKGHDELKAFTNEQLNVFLTDHTAPFVDKVFEALTSKSYMPASTAPTSASATAPDLKKEKAPAEKPSKPTAPPGVQKSSSSPSASKAESRPLRKRISPPPSENREKEKQSRDKERRRSRSPRDRRGRATTSRSGRTSSSDRDRHSKRRSRSRSRSSSGSRTPPYKSRSSRRRCKDFEERGYCIRGDQCPYYHGRDPVVVDENALGSMVPLPATAPNFSLPPPGYNPLNPPPPGVVVAAGEYNPEAPALNNYSIPPPPIPGQWQQPHVAAQYVPQSVSSYSQPPPAAAQGVVTQPGSFRGAPRGRGNIRGRGGFARGGFTGAINRDNCTLQVAKIPPEMNTIAKLNEHFATFGTVDNIQVRYNGEIDSALVTYASKFDAGKAYKSPTPVLNNRFIKVFWHNPGGEGSENATGKPSSPTSPPKPVEKPKIATVQESKFVSVAAQNYRKQIQDAKERLTKEKSILSTLVQAQNQHNIILDKWMVKQKELLIKARTSTDETDKKNATKLVKHLHKKIKACKEEVDGILLKISEKSMVVDEIAAQIEELKNPQKSDDSTRKRKAGSDGDEPQSKMSSVVIVRGVTDELVTDLMAHMEKFGEVFDHSVKADDDGLITAVFPFRKTGDALKAMADGKVLNGVDLEMELKTERIEEIPSTDTNMSADQLLAAIPSNLESDEEDDLLND”, the “soluble on expression in E. coli” value was “not soluble”.

Turning to “MPKWGNINERRNQLHEVIRLSGMNLIIDDTDHPLIIKVASIQSARMQVYFIDNDDYFQNRLQTADENGVEYDDNDSRAIFYARGVLETVKKLRWCPDVIHCHGWMTALAPLYIKKAYKDEPSFRDAKVVFSVYEDDFKNTLSEDFATKLMLKGITKKDLAGLKEPVDYAALCKLAVDYSDGIIQNSAKVDESIIEYARQSGKLVLDYQDPENYANACNEFYDQVWETTTNKEEELEHHHHHH”, the “soluble on expression in E. coli” value is reported as “soluble”.

In the case of “MANQIYLFSLICLSVLLCQSYTVSSFQKSLDLAKPCKRFVLHLHDIAYDGDNAANATSAAIVNPLGLGDFSFGKFVIMDDPVTMDQNYLSKPVARVQGFFCYHGKATYDAWIAWTVVFNSTQHKGAFTIMGENPFMEPTRDLPIVGGTGDFIMTRGIATLTTDHIDGSKYFRVKLDIKLYECYH”, the “soluble on expression in E. coli” value is “soluble”.
